# Ends that are not written are not given here.
# Experiments:
# GSK3β [1] = target: T1, GSK3β (Mus musculus, UniProt Q9WV60); assay: Far western binding of GSK3β to GST-fused LRP6 fragments; settings: for Binding of GSK3β: GST-fusion treated with GSK3β and CK1, GSK3β 1 µg/ml, three independent experiments
# T1 construct: The catalytic domains of mouse GSK3β (residues 27–393) and CK1ε (residues 1–319) were expressed and purified; made in house
# From the text: We first investigated whether the intracellular region of LRP6 binds to GSK3β in a phosphorylation-dependent manner. To detect binding, we used recombinant GST-fused LRP6 fragments (miniCL, miniCLMT, PPPSPxS, PPPAPxS; Fig. 1A) and GSK3β proteins in a far western binding assay. This assay is appropriate as the LRP6 cytoplasmic region is expected to be natively unstructured and therefore should not suffer from denaturation artifacts. Prior to the binding reaction, the GST-fused LRP6 fragments were phosphorylated by GSK3β and CK1 and transferred to a PVDF membrane. The membrane was incubated with GSK3β, and bound GSK3β was detected with an anti-GSK3β antibody. GSK3β bound to GST-miniCL and GST-miniCLMT, but not GST-PPPSPxS or GST-PPPAPxS (Fig. 4). […] Also, given the measured Ki value of the single PPPSPxS motif, it was expected that the single PPPSPxS motif might exert a limited role in recruiting the GSK3β.
# Figure 4 Phosphorylation-dependent binding of the LRP6 intracellular region to GSK3β in the absence and presence of Axin. (A) GST (Lane 1), GST-fused miniCL (Lane 3; GST-miniCL), GST-fused miniCLMT (Lane 5; GST-miniCLMT), and their phosphorylated forms (Lanes 2, 4, 6; indicated by “phos”) were loaded onto an SDS-polyacrylamide gel, and then transferred to PVDF membrane (Left top). […] The phosphorylated protein bands show an upshifted mobility on the gel. The PVDF membrane was incubated with 1 µg/ml of GSK3β to allow GSK3β to bind to the proteins in the membrane. The bound GSK3β was visualized on the transferred proteins by western blotting using an anti-GSK3β antibody (Left bottom), and the GSK3β protein used to obtain the phosphorylated forms of each protein is indicated by GSK3β*. The band intensities of bound GSK3β were measured from the three independent experiments (Right). […] The phosphorylated GST-fused miniCL was transferred to PVDF membrane, and the membrane was incubated with GSK3β (0.1 µg/ml) and GST-fused Axin GBD domain protein (0, 10 µM). Error bars indicate the standard deviation from three independent experiments. […]
# GSK3β [2] = target: T1, GSK3β; assay: In vitro GSK3β activity assay with synthetic peptides (phosphorylation of primed β-catenin N-terminal fragment); assay type: biochemical; settings: at 100 µM; primed β-catenin N-terminal fragment 7 µM, 1 mM ATP, pH 8.0, 30 min at 37°C; 4–7 independent experiments
# From the text: We synthesized one dually-phosphorylated (NPPPpSPApTERSH, where pS or pT designates a phosphorylated Ser or Thr residue), two singly-phosphorylated (NPPPSPApTERSH and NPPPp[…]) and one non-phosphorylated ([…]) peptides derived from the first PPPSPxS motif of LRP6 (Fig. 1A). To measure the GSK3β activity toward β-catenin in vitro, we utilized a β-catenin N-terminal fragment (residues 1–133), whose Ser45 was prephosphorylated by CK1, as a substrate (Ha et al., 2004). Each synthetic peptide was added to a reaction mixture containing the purified GSK3β enzyme and the substrate β-catenin N-terminal fragment. The GSK3β activity was determined through measurement of the intensity of the supershifted (retarded) β-catenin bands (Fig. S3), which represent the phosphorylated product species (Fig. S4), on an SDS-polyacrylamide gel (Figs. S3, S4, S5, S6, S7). […] This corresponds well with the results of Zeng et al., who reported that the first Ser residue in the PPPSPxS motif has a more important role in Wnt/β-catenin signaling than the second Ser residue.
# The catalytic domains of mouse GSK3β (residues 27–393) and CK1ε (residues 1–319) were expressed and purified as previously described. The N-terminal region (residues 1–133) of β-catenin was expressed in Escherichia coli as a GST-fusion protein with a TEV protease cleavage site and then purified using Glutathione-agarose. Subsequently, the GST tag was cleaved using recombinant TEV protease and was removed by repeated HiTrapQ anion-exchange chromatography. The N-terminal region of β-catenin was then phosphorylated by incubation with the catalytic domain of CK1ε (0.28 mg/ml) at 37°C for 20 min in 50 mM Tris buffer (pH 8.0) containing 10 mM MgCl2, 10 mM 2-mercaptoethanol, and 2 mM phenylmethylsulfonylfluoride. The phosphorylated β-catenin fragment was then further purified using HiTrapQ anion-exchange chromatography to remove the CK1ε enzyme. […]
# [3] = target: T2, catalytic domain of mouse GSK3β (residues 27–393) (mouse, UniProt Q9WV60 27-393); assay: far-Western, overlay or dot blot; GST-fused LRP6 fragments (with or without prior treatment with GSK3β and CK1) run on SDS-PAGE and transferred to PVDF; membrane incubated 3 h with 1 µg/ml GSK3β in 5% skim milk in TBST (20 mM Tris pH 7.6, 137 mM NaCl, 0.05% Tween 20); bound GSK3β detected with anti-GSK3β antibody; settings: both partners purified
# T2 construct: GSK3β (glycogen synthase kinase 3 beta), mouse, catalytic domain, residues 27-393; also called recombinant GSK3β catalytic domain; source: recombinant, expressed and purified as previously described [32]
Molecule,Binding of GSK3β (GSK3β [1]),binding result [3],also measured
"GST-miniCL: GST-fused human LRP6 miniCL, residues 1470–1510 (SSSSSSTKGTYFPAILNPPPSPATERSHYTMEFGYSSNSPS; also: GST fusion (GST left off))",bound,–,–
"GST-miniCLMT: GST-fused miniCLMT, residues 1470–1510 with substitution at Ser1490 with Ala (SSSSSSTKGTYFPAILNPPPAPATERSHYTMEFGYSSNSPS; also: GST fusion (GST left off))",bound,–,Effect of S1490A mutation on GSK3β binding (GSK3β [1]): does not affect binding
"NPPPSPApTERSH [PPPSPx(p)S, singly-phosphorylated peptide (second Ser/Thr) derived from the first PPPSPxS motif of LRP6]",–,–,Inhibitory effect on GSK3β activity toward β-catenin (GSK3β [2]): only a marginal inhibitory effect
"SSSSSSTKGTYFPAILNPPPSPATERSHYTMEFGYSSNSPS (domain or fragment, UniProt O75581 1470-1510, looked up, also: GST-fused, end not given here, phosphorylated by GSK3β and CK1ε, sites not given here, LRP6, human, intracellular fragment miniCL, residues 1470-1510 (Ser/Thr rich cluster and first PPPSPxS motif); also called phosphorylated GST-miniCL; GST-miniCL phos; source: E. coli, purified (Glutathione-agarose, HiTrapQ), then phosphorylated in vitro with recombinant GSK3β and CK1ε) [GST-fused LRP6 miniCL (residues 1470–1510 of human LRP6), phosphorylated by GSK3β and CK1]",–,binds,–

# More lines, main results first:
Binding of GSK3β (GSK3β [1]),binding result [3],Molecule,also measured
–,binds,"SSSSSSTKGTYFPAILNPPPAPATERSHYTMEFGYSSNSPS (domain or fragment, UniProt O75581 1470-1510, looked up, also: GST-fused, end not given here, phosphorylated in vitro by GSK3β and CK1ε, sites not given here, LRP6, human, intracellular fragment miniCL, residues 1470-1510, with Ser1490 replaced by Ala; also called phosphorylated GST-miniCLMT; GST-miniCLMT phos; source: E. coli, purified (Glutathione-agarose, HiTrapQ), then phosphorylated in vitro with recombinant GSK3β and CK1ε) [GST-fused LRP6 miniCLMT (residues 1470–1510 of human LRP6, S1490A), phosphorylated by GSK3β and CK1]",–
–,binds,"SSSSSSTKGTYFPAILNPPPAPATERSHYTMEFGYSSNSPS (domain or fragment, UniProt O75581 1470-1510, looked up, also: GST fusion (GST left off), LRP6, human, intracellular fragment miniCL, residues 1470-1510, with Ser1490 replaced by Ala; also called GST-miniCLMT; source: E. coli, purified (Glutathione-agarose, HiTrapQ)) [GST-fused LRP6 miniCLMT (residues 1470–1510 of human LRP6, S1490A), not phosphorylated]",–
